Results published in publication PMC12199161, “Structural and functional studies of the main replication protein NS1 of human parvovirus B19” (Nucleic Acids Research, 2025).
“And” between values parts separate entries of the source, which are not always exact repeats. Equal entries are not always repeated.

Legend:
[1] = target: T1, NS1_2-570 (Human parvovirus B19 isolate AU, UniProt P07298); assay: cryo-EM structure of complex; format: binding; settings: Mg2+ (5 mM MgCl2 in DNA complexes); Walker A site, one AMPPNP per protomer; DNA-free dodecamer; also ternary complexes with ssDNA (3.3 Å, hexamer) and dsDNA (3.43 Å, dodecamer)
T1 construct: gene NS1; residues 2-570 of 671 (Nuc, OD, SF3 HD, TAD; ZnD missing); N-terminal His-MBP tag, TEV-treated; codon-optimized cDNA; E. coli Rosetta (DE3); monomer 62 kDa; ~830 kDa oligomer by gel filtration

[2] = target: the molecule itself; assay: cryo-EM structure
[3] = target: the molecule itself; assay: SEC; NS1_200-501 (WT and 3G mutant) on Superdex 200 Increase 10/30 GL
[4] = target: NS1_2-570 (Human parvovirus B19 (B19V), UniProt I7BP20 2-570); assay: EMSA; no ATP or Mg2+ listed; settings: protein: recombinant; tags: N-terminal His6-MBP, TEV protease treated; chain copies: 12; label: 5'-FAM on top strand; blunt

T1 sequence (P07298 2-570): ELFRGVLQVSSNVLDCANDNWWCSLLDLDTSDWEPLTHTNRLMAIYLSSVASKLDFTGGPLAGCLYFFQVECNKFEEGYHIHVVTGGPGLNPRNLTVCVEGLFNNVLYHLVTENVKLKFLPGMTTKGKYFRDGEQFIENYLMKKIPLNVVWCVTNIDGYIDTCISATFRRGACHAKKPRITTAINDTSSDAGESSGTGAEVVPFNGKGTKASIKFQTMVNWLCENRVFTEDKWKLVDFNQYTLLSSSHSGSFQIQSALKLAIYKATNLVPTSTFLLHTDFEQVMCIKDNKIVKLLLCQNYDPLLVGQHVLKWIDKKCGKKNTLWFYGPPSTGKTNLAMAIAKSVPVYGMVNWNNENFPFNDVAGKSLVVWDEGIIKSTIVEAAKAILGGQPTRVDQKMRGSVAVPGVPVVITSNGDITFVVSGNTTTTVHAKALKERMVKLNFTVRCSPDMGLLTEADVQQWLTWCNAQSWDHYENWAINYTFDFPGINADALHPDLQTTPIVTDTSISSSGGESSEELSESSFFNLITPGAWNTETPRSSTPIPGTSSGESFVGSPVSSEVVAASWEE

With `Nc1ncnc2c1ncn2[C@@H]1O[C@H](COP(=O)(O)OP(=O)(O)NP(=O)(O)O)[C@@H](O)[C@H]1O` [AMPPNP] the AMPPNP binding site [1] was “one AMPPNP molecule is captured at the characteristic Walker A region of each NS1 protomer”.

B1: B19V NS1_2-570 protein (domain or fragment)
chain: ELFRGVLQVSSNVLDCANDNWWCSLLDLDTSDWEPLTHTNRLMAIYLSSVASKLDFTGGPLAGCLYFFQVECNKFEEGYHIHVVIGGPGLNPRNLTVCVEGLFNNVLYHLVTENVKLKFLPGMTTKGKYFRDGEQFIENYLMKKIPLNVVWCVTNIDGYIDTCISATFRRGACHAKKPRITTAINDTSSDAGESSGTGAEVVPFNGKGTKASIKFQTMVNWLCENRVFTEDKWKLVDFNQYTLLSSSHSGSFQIQSALKLAIFKATNLVPTSTFLLHTDFEQVMCIKDNKIVKLLLCQNYDPLLVGQHVLKWIDKKCGKKNTLWFYGPPSTGKTNLAMAIAKSVPVYGMVNWNNENFPFNDVAGKSLVVWDEGIIKSTIVEAAKAILGGQPTRVDQKMRGSVAVPGVPVVITSNGDITFVVSGNTTTTVHAKALKERMVKLNFTVRCSPDMGLLTEADVQQWLTWCNAQSWDHYENWAINYTFDFPGINADALHPDLQTTPIVTDTSISSSGGESSEELSESSFFNLITPGAWNTETPRSSTPIPGTSSGESFVGSSVSSEVVAASWEE
notes: source: E. coli Rosetta (DE3), purified (HisTrap, heparin, TEV protease, HisTrap, Superose 6 gel filtration)
In the case of B1, the “stoichiometry N” value [2] is reported as 12 and 6.

B2: NS1_200-501 protein (domain or fragment)
chain: AEVVPFNGKGTKASIKFQTMVNWLCENRVFTEDKWKLVDFNQYTLLSSSHSGSFQIQSALKLAIFKATNLVPTSTFLLHTDFEQVMCIKDNKIVKLLLCQNYDPLLVGQHVLKWIDKKCGKKNTLWFYGPPSTGKTNLAMAIAKSVPVYGMVNWNNENFPFNDVAGKSLVVWDEGIIKSTIVEAAKAILGGQPTRVDQKMRGSVAVPGVPVVITSNGDITFVVSGNTTTTVHAKALKERMVKLNFTVRCSPDMGLLTEADVQQWLTWCNAQSWDHYENWAINYTFDFPGINADALHPDLQTT
notes: source: E. coli Rosetta (DE3), purified
With B2 the “stoichiometry N” value [3] was 12.

B3: duplex DNA-1 (dsDNA)
DNA 1: AAGAAGACACCAAATCAGATGCCGCCGGTCGCCGCCGGTAGGCGGGAC
DNA 2: GTCCCGCCTACCGGCGGCGACCGGCGGCATCTGATTTGGTGTCTTCTT
B3: binds [4].
